Here are results for 1 molecule from publication PMC1514790, “Tomosyn Inhibits Synaptic Vesicle Priming in Caenorhabditis elegans” (PLoS Biology, 2006).

The assay addresses T1, C. elegans syntaxin-GST (UNC-64 cytoplasmic domain, aa 1-266) (C. elegans, UniProt O16000 1-266).
T1 construct: C. elegans syntaxin (UNC-64), cytoplasmic domain aa 1-266, lacking the TM domain, cloned into pGEX-2T; pGEX-2T normally puts GST at the N-terminus (surmise); also called GST syntaxin; source: recombinant, batch-purified with glutathione agarose under native conditions
T1 sequence (looked up): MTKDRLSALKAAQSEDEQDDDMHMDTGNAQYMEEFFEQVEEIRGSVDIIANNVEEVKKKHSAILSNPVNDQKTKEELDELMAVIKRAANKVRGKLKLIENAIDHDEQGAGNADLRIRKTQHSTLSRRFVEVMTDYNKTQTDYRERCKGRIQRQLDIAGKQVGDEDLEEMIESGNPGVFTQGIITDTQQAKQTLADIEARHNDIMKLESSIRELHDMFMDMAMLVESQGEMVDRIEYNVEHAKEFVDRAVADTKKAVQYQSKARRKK
The assay is described as follows: pull-down; ~1.6 uM each of C. elegans syntaxin-GST, rat SNAP-25-His6 and His6-TOM-1Ct or His6-SNB-1, 2 h to overnight at 4 °C in D-buffer, isolated on glutathione agarose; Coomassie Blue staining, densitometry. To be noted: both partners purified.

B1: C. elegans synaptobrevin SNB-1 cytoplasmic domain (aa 1-88), His6T7-tagged (domain or fragment, UniProt O02495 1-88, looked up)
chain: MDAQGDAGAQGGSQGGPRPSNKRLQQTQAQVDEVVGIMKVNVEKVLERDQKLSQLDDRADALQEGASQFEKSAATLKRKYWWKNIKMM
notes: C. elegans synaptobrevin (SNB-1), cytoplasmic domain aa 1-88, lacking the TM domain, cloned into pRSETC; also called His6T7-tagged SNB-1; His6-SNB-1; source: recombinant, purified (Ni-NTA agarose)
Turning to B1, the binding result is listed as “binds”.
